Measured values published in patent publication US20200407442A1 (WUXI BIOLOGICS IRELAND, published 2020).
Substitutions are numbered along the chain they refer to.

T1: human LAG-3-ECD.D12.mFc mutant L134A (human, UniProt P18627 37-252)
T1 construct: Alanine scanning mutant; construct limits as for m26
T1 chain: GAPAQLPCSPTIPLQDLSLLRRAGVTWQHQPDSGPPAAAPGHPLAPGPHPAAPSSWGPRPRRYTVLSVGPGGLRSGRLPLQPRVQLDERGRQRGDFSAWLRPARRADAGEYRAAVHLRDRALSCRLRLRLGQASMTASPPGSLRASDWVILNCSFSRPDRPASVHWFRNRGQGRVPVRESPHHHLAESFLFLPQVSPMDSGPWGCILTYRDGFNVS

T2: human LAG-3-ECD.D12.mFc mutant W135A (human, UniProt P18627 37-252)
T2 construct: Alanine scanning mutant; construct limits as for m26
T2 chain: T1 chain with A98L, W99A

T3: human LAG-3-ECD.D12.mFc mutant R137A (human, UniProt P18627 37-252)
T3 construct: Alanine scanning mutant; construct limits as for m26
T3 chain: T1 chain with A98L, R101A

T4: human LAG-3-ECD.D12.mFc mutant D131A (human, UniProt P18627 37-252)
T4 construct: Alanine scanning mutant; construct limits as for m26
T4 chain: T1 chain with D95A, A98L

T5: human LAG-3-ECD.D12.mFc mutant T62A (human, UniProt P18627 37-252)
T5 construct: Alanine scanning mutant; construct limits as for m26
T5 chain: T1 chain with T26A, A98L

T6: human LAG-3-ECD.D12.mFc mutant A40G (human, UniProt P18627 37-252)
T6 construct: construct limits as for m26
T6 chain: T1 chain with A4G, A98L

T7: human LAG-3-ECD.D12.mFc mutant D155A (human, UniProt P18627 37-252)
T7 construct: Alanine scanning mutant; construct limits as for m26
T7 chain: T1 chain with A98L, D119A

T8: human LAG-3-ECD.D12.mFc mutant W92A (human, UniProt P18627 37-252)
T8 construct: Alanine scanning mutant; construct limits as for m26
T8 chain: T1 chain with W56A, A98L

B1: 3.40.19-uAb-IgG4L (antibody, V domains shown)
VH: QLQLQESGPGLVKPSETLSLTCTVSGDSISSTSYYWGWIRQPPGKGLEWIGSFYYSGSTYYNPSLKSRVTISVDTSKNQFSLKLNSVTAADTAVYYCARMQLWSYDVDVWGQGTTVTVSS
VL: QSALTQPASVSGSPGQSITISCTGTSSDVGGYDYVAWYQQHPGKVPKLMIYDVSERPSGVSNRFSGSKSGNTASLTISGLQAEDEADYYCSSYTSTTTLVVFGGGTKLSVL
notes: Fully human antibody from OMT rats; IgG4 lambda by its name; also called 3.40.19-uAb-hIgG4L
B2: 1.53.3-uAb-IgG4k (antibody, V domains shown)
VH: QVQLQQWGAGLLKPSETLSLTCGVYGGSFSGYYWSWIRQPPGMGLEWIGEINHRGNTNYNPSLKSRVTISEDTSKNQFSLRLSSVTAADTAVYFCTRGEDYSDYDYYGDFWGQGTLVTVSS
VL: EIVLTQSPATLSLSQGERATLSCRASQSISSYLAWYQQKPGQAPRLLIYAASNRATGIPARFSGSGSGTDFTLTISSLEPEDFAIYYCQQRSNWPLTFGGGTKVEIK
notes: Fully human antibody from OMT rats; IgG4 kappa by its name

Experiments:
Experiment in all cases: ELISA, antibody coated, LAG-3 D12.mFc mutant in supernatant, normalised to control mutants
[1] = target: T1, human LAG-3-ECD.D12.mFc mutant L134A
Summary of the method: (§1)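 Antibody 1.53.3-uAb-IgG4k or 3.40.19-uAb-hIgG4L coated at 2 μg/mL, then exposed to supernatant containing quantified LAG-3 D12.mFc mutants. Detection with HRP anti-mFc (1:5000). Absorbance normalized to mean of control mutants; binding fold change <0.75 set as epitope cutoff.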

[2] = target: T2, human LAG-3-ECD.D12.mFc mutant W135A
Summary of the method: as §1

[3] = target: T3, human LAG-3-ECD.D12.mFc mutant R137A
Summary of the method: as §1

[4] = target: T4, human LAG-3-ECD.D12.mFc mutant D131A
Summary of the method: as §1

[5] = target: T5, human LAG-3-ECD.D12.mFc mutant T62A
Summary of the method: as §1

[6] = target: T6, human LAG-3-ECD.D12.mFc mutant A40G
Summary of the method: as §1

[7] = target: T7, human LAG-3-ECD.D12.mFc mutant D155A
Summary of the method: as §1

[8] = target: T8, human LAG-3-ECD.D12.mFc mutant W92A
Summary of the method: as §1

Binder	Fold Change [1]	Fold Change [2]	Fold Change [3]	Fold Change [4]	Fold Change [5]	Fold Change [6]	Fold Change [7]	Fold Change [8]
B1	0.04	0.049	0.101	0.045	0.727	0.608	0.701	–
B2	–	–	–	–	–	–	–	0.554
